Our source for the IC50 and Kd values is the Immune Epitope Database (IEDB).

Bounds are passed on as bounds.

Assay [1] deals with HLA-B*07:02. As to the kind of experiment: IEDB peptide-MHC binding, purified MHC/competitive/fluorescence; ≥ and ≤ were set here for values at or beyond the usual limits of such assays.
The target of assay [2] is HLA-A*24:03. Kind of assay: IEDB peptide-MHC binding, purified MHC/direct/fluorescence; filed as Kd, often an IC50 or EC50 that approximates it; ≥ and ≤ were set here for values at or beyond the usual limits of such assays. To be noted: source organism: Zaire ebolavirus.
Assay [3] deals with HLA-A*02:16. The assay is described as above. To be noted: source organism: Zaire ebolavirus.
For assay [4], the target named is HLA-A*02:11. Described as above. To be noted: source organism: Zaire ebolavirus.
For assay [5], the target named is HLA-A*02:03. The description is as above. To be noted: source organism: Zaire ebolavirus.
For assay [6], the target named is HLA-A*02:12. Described as above. To be noted: source organism: Zaire ebolavirus.
The target of assay [7] is HLA-A*68:02. Described as above. To be noted: source organism: Zaire ebolavirus.
The target in assay [8] is HLA-A*02:19. Described as above. To be noted: source organism: Zaire ebolavirus.
For assay [9], the target named is HLA-A*01:01. The description is as above. To be noted: source organism: Zaire ebolavirus.
The target of assay [10] is HLA-A*03:01. Described as above. To be noted: source organism: Zaire ebolavirus.
In assay [11] the target is HLA-A*23:01. The description is as above. To be noted: source organism: Zaire ebolavirus.
The target in assay [12] is HLA-B*27:03. As to the kind of experiment: IEDB peptide-MHC binding, purified MHC/competitive/fluorescence; filed as Kd, often an IC50 or EC50 that approximates it; ≥ and ≤ were set here for values at or beyond the usual limits of such assays. To be noted: source organism: Zaire ebolavirus.
The target in assay [13] is HLA-B*57:01. The description is as above. To be noted: source organism: Zaire ebolavirus.
The target in assay [14] is HLA-B*51:01. The description is as above. To be noted: source organism: Zaire ebolavirus.
Assay [15] has as its target HLA-A*02:01. The description is as above.
Assay [16] deals with HLA-B*46:01. The description is as above. To be noted: source organism: Zaire ebolavirus.
For assay [17], the target named is HLA-A*69:01. The description is as above. To be noted: source organism: Zaire ebolavirus.
Assay [18] concerns the target HLA-B*39:01. The description is as above.
For assay [19], the target named is HLA-A*26:01. Described as above. To be noted: source organism: Zaire ebolavirus.
Assay [20] concerns the target HLA-A*24:02. Kind of assay: IEDB peptide-MHC binding, purified MHC/competitive/fluorescence; ≥ and ≤ were set here for values at or beyond the usual limits of such assays.
For assay [21], the target named is HLA-A*01:01. Described as above.
The target of assay [22] is HLA-B*58:01. As to the kind of experiment: IEDB peptide-MHC binding, purified MHC/direct/fluorescence; filed as Kd, often an IC50 or EC50 that approximates it; ≥ and ≤ were set here for values at or beyond the usual limits of such assays.
Assay [23] has as its target HLA-C*15:02. The assay is described as above.
Assay [24] concerns the target HLA-C*07:02. Described as above.
Assay [25] addresses HLA-B*57:01. The description is as above. To be noted: source organism: Salmonella enterica.
The target of assay [26] is HLA-B*15:17. Described as above. To be noted: source organism: Salmonella enterica subsp. enterica serovar Typhimurium.
Assay [27] concerns the target HLA-C*12:03. The assay is described as above.
Assay [28] addresses HLA-B*07:02. Kind of assay: IEDB peptide-MHC binding, purified MHC/competitive/radioactivity; filed as Kd, often an IC50 or EC50 that approximates it; ≥ and ≤ were set here for values at or beyond the usual limits of such assays. To be noted: source organism: Vaccinia virus WR.
Assay [29] addresses HLA-B*51:01. The assay is described as above. To be noted: source organism: Vaccinia virus WR.
In assay [30] the target is HLA-B*35:01. Described as above. To be noted: source organism: Vaccinia virus WR.
Assay [31] has as its target HLA-A*11:01. The description is as above. To be noted: source organism: Vaccinia virus WR.
For assay [32], the target named is HLA-A*68:01. The description is as above. To be noted: source organism: Vaccinia virus WR.
Assay [33] addresses HLA-A*31:01. The assay is described as above. To be noted: source organism: Vaccinia virus WR.
Assay [34] deals with HLA-B*54:01. The assay is described as above. To be noted: source organism: Vaccinia virus WR.
For assay [35], the target named is HLA-A*03:01. The assay is described as above. To be noted: source organism: Vaccinia virus WR.
In assay [36] the target is HLA-A*33:01. The description is as above. To be noted: source organism: Vaccinia virus WR.
Assay [37] deals with HLA-B*53:01. Described as above. To be noted: source organism: Vaccinia virus WR.
The target in assay [38] is HLA-A*11:01. As to the kind of experiment: IEDB peptide-MHC binding, purified MHC/competitive/fluorescence; ≥ and ≤ were set here for values at or beyond the usual limits of such assays. To be noted: source organism: Sudan ebolavirus.
The target in assay [39] is HLA-B*15:01. The assay is described as above.
Assay [40] deals with HLA-A*02:01. Described as above.
Assay [41] addresses HLA-A*02:19. Kind of assay: IEDB peptide-MHC binding, purified MHC/competitive/fluorescence; filed as Kd, often an IC50 or EC50 that approximates it; ≥ and ≤ were set here for values at or beyond the usual limits of such assays. To be noted: source organism: Toxoplasma gondii RH.
Assay [42] has as its target HLA-B*08:01. Kind of assay: IEDB peptide-MHC binding, purified MHC/competitive/fluorescence; ≥ and ≤ were set here for values at or beyond the usual limits of such assays. To be noted: source organism: Vaccinia virus Copenhagen.
Where [43] appears, read: source organism: Zaire ebolavirus.
Setting [44] is: source organism: Sudan ebolavirus.
The mark [45] stands for this setting: source organism: Bacillus anthracis str. A2012.
Setting [46] is: source organism: Vaccinia virus L-IPV.
Setting [47] is: source organism: Bacillus anthracis str. A0488.
The mark [48] stands for this setting: source organism: Vaccinia virus Copenhagen.

Take QPEWFRNIL: the IC50 (as a rule, the concentration that inhibits the measured activity by half) in assay [1] (source organism: Influenza A virus (A/Oklahoma/309/2006(H3N2))) came out at 0.188 µM.
For TTEANAGQF, the Kd in [2], in assay [3], in assay [4], in [5], in assay [6] and in assay [7] was at least 20 µM each time. Moreover, the Kd in [8], in assay [9], in assay [10], in [11], in [12] and in assay [13] was at least 20 µM each time. The Kd in [14], in [15] (setting [43]), in [16], in [17], in assay [18] (setting [43]) and in assay [19] was at least 20 µM throughout. Besides, the IC50 was 22 µM in assay [20] (setting [43]) and at least 109 µM in assay [21] (setting [43]).
In the case of TENTSSYYA, in [21] (setting [44]), the IC50 was at least 142 µM.
VSARIAALF: the values for the Kd in [22] (source organism: Mycobacterium tuberculosis) and in assay [23] (source organism: Mycobacterium tuberculosis H37Rv) were 0.036 µM and 3.14 µM, respectively.
In the case of FLIYFRSPL, the Kd (in general, the constant that tells how readily two partners part at equilibrium) in assay [24] (setting [45]) is 1.44 µM; in assay [15] (setting [45]), 0.0106 µM.
For SPRMLTPIN, the IC50 in assay [1] (setting [43]) was 5.08 µM. In other words, the single-digit micromolar range.
For the sequence TTHHTIPLL, the Kd is 4 µM in [25], 3.24 µM in assay [22] (source organism: Salmonella enterica subsp. enterica serovar Typhimurium), 0.0659 µM in assay [26] and at least 20 µM in [23] (source organism: Salmonella enterica subsp. enterica serovar Typhi str. CT18).
YRSMIAFKL showed a Kd in assay [24] (source organism: Entamoeba histolytica HM-1:IMSS) of 0.045 µM.
On to RLYDYFTRV, for which the Kd was 0.932 µM in assay [27] (setting [46]); 0.0039 µM in [15] (setting [46]); 16.8 µM in assay [28]; at least 77.5 µM in assay [29]; at least 31.5 µM in assay [30]; 0.155 µM in assay [31]. The Kd in [32] is at least 77.7 µM; in assay [33] it was 0.411 µM; in assay [34], at least 60.7 µM; in assay [35] it was at least 59.3 µM; in assay [36] it was at least 77.7 µM; in assay [37], at least 78.2 µM.
As for GTGPCPGDY, the values for the IC50 in assay [38] and in assay [21] (setting [44]) were at least 114 µM and 10.8 µM, respectively.
Turning to YQVNNLEEI, the IC50 in [20] (setting [43]) came to 1.66 µM; in [39] (setting [43]), 54.9 µM; in assay [40] (setting [43]), 25.6 µM.
With SIFERIREA, the Kd in assay [15] (source organism: Toxoplasma gondii RH) came out at 0.002 µM; in assay [41] it was 1.15 µM.
Take FRMTENVPL: the Kd was 0.048 µM in assay [24] (setting [47]) and 0.0017 µM in assay [18] (setting [47]).
For the sequence YPTAWQSVG, the IC50 was at least 209 µM in assay [20] (setting [43]) and at least 174 µM in assay [1] (setting [43]).
In the case of ESDMDYHKI, the results for the IC50 in assay [20] (setting [43]) and in assay [21] (setting [43]) were at least 111 µM and at least 118 µM, respectively.
For VAANIVLTV, the Kd in assay [27] (source organism: Callithrix jacchus) was at most 0.001 µM; in assay [15] (source organism: Homo sapiens) it was 0.0145 µM.
As for ALPPRAFEL, the dissociation constant (Kd) in [24] (source organism: Mycobacterium tuberculosis F11) was determined as 0.085 µM.
The sequence TINDLKMML gave a Kd in assay [23] (setting [48]) of 0.043 µM.
As to SLSKRERQL, the results for the IC50 in [1] (setting [48]) and in assay [42] were 57.5 µM and at least 76.3 µM, respectively.
Take KQKFPYEGG: the IC50 in [39] (source organism: Vaccinia virus) is at least 233 µM.
Regarding RSDGYFLKI, the values for the IC50 in assay [20] (setting [48]), in assay [40] (setting [48]) and in assay [21] (setting [48]) were 16.4 µM, 4.94 µM and 3.4 µM, respectively.
In assay [21] (setting [44]), YTEGLMHNQ showed an IC50 of at least 135 µM.
